In patent publication US20160319027A1:

Target: human TrkA on TF-1 cells (human), P04629
Test: cell-based or functional assay

Sequence of human TrkA on TF-1 cells (human), P04629 (P04629 33-796): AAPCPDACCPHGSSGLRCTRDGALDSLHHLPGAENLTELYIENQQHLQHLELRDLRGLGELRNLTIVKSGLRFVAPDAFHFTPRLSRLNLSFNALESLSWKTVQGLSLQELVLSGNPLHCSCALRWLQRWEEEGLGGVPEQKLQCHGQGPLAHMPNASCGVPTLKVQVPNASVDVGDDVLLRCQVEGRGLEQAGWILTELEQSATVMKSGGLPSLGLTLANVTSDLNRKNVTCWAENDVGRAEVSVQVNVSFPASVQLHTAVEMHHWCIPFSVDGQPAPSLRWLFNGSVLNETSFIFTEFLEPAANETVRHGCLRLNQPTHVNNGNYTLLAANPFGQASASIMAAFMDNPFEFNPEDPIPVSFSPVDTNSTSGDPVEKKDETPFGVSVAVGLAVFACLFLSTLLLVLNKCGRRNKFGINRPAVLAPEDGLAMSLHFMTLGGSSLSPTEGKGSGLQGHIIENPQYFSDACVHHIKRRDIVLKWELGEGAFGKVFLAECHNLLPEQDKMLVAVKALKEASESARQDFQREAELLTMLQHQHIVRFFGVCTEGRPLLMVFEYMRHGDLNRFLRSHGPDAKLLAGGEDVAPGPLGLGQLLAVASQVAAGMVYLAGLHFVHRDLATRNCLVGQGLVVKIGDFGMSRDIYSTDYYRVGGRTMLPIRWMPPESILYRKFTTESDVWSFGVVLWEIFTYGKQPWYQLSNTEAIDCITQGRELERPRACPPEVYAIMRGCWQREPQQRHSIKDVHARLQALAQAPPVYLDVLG

B1: MNAC13 mouse antibody (antibody, mouse IgG1, kappa)
heavy: EVKLVESGGGLVQPGGSLKLSCAASGFTFSTYTMSWARQTPEKRLEWVAYISKGGGSTYYPDTVKGRFTISRDNAKNTLYLQMSSLKSEDTALYYCARGAMYGNDFFYPMDYWGQGTSVTVSSKTTPPSVYPLAPGSAAQTNSMVTLGCLVKGYFPEPVTVTWNSGSLSSGVHTFPAVLESDLYTLSSSVTVPSSPRPSETVTCNVAHPASSTKVDKKIVPRDCGCKPCICTVPEVSSVFIFPPKPKDVLTITLTPKVTCVVVDISKDDPEVQFSWFVDDVEVHTAQTQPREEQFNSTFRSVSELPIMHQDWLNGKEFKCRVNSAAFPAPIEKTISKTKGRPKAPQVYTIPPPKEQMAKDKVSLTCMITDFFPEDITVEWQWNGQPAENYKNTQPIMNTNGSYFVYSKLNVQKSNWEAGNTFTCSVLHEGLHNHHTEKSLSHSPGK
light: QIVLTQSPAIMSASLGEEITLTCSASSSVSYMHWYQQKSGTSPKLLIYTTSNLASGVPSRFSGSGSGTFYSLTISSVEAEDAADYYCHQWSSYPWTFGGGTKLEIKADAAPTVSIFPPSSEQLTSGGASVVCFLNNFYPKDINVKWKIDGSERQNGVLNSWTDQDSKDSTYSMSSTLTLTKDEYERHNSYTCEATHKTSTSPIVKSFNRNEC
Question: Which TF-1 cell proliferation assay IC50 (5 ng/ml human beta-NGF) does the source give for B1 here?
Answer: Its TF-1 cell proliferation assay IC50 (5 ng/ml human beta-NGF) is 0.23 µg/mL.
